Data on 4 molecules can be found in article PMC10645729.

First the molecules themselves.
T1: human ribonucleotide reductase large subunit RRM1 (human) (UniProt P23921)
T1 sequence: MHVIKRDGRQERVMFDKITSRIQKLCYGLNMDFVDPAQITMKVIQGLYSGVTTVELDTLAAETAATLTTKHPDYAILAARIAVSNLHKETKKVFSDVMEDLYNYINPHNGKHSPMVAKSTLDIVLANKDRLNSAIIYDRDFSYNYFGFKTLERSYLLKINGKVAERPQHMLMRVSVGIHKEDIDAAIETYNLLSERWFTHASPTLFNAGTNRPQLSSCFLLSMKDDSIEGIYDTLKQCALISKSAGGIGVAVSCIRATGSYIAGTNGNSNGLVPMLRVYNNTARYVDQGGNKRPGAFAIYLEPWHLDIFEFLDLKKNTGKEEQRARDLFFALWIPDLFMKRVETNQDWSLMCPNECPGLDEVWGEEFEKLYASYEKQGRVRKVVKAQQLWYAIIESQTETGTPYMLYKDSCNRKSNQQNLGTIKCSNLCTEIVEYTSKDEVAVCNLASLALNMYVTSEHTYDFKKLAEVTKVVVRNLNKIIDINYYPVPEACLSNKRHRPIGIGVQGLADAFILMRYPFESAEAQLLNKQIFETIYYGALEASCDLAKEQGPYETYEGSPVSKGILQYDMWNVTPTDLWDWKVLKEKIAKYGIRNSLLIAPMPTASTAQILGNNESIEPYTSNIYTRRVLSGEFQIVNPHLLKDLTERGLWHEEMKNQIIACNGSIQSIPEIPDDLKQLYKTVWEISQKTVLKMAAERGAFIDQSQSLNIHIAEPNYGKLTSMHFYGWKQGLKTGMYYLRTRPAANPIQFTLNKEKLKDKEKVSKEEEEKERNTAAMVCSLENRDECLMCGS

B1: hRRM2B N221S (enzyme)
chain: MGDPERPEAAGLDQDERSSSDTNESEIKSNEEPLLRKSSRRFVIFPIQYPDIWKMYKQAQASFWTAEEVDLSKDLPHWNKLKADEKYFISHILAFFAASDGIVNENLVERFSQEVQVPEARCFYGFQILIENVHSEMYSLLIDTYIRDPKKREFLFNAIETMPYVKKKADWALRWIADRKSTFGERVVAFAAVEGVFFSGSFAAIFWLKKRGLMPGLTFSSELISRDEGLHCDFACLMFQYLVNKPSEERVREIIVDAVKIEQEFLTEALPVGLIGMNCILMKQYIEFVADRLLVELGFSKVFQAENPFDFMENISLEGKTNFFEKRVSEYQRFAVMAETTDNVFTLDADF
B2: hRRM2B F202G (enzyme)
chain: MGDPERPEAAGLDQDERSSSDTNESEIKSNEEPLLRKSSRRFVIFPIQYPDIWKMYKQAQASFWTAEEVDLSKDLPHWNKLKADEKYFISHILAFFAASDGIVNENLVERFSQEVQVPEARCFYGFQILIENVHSEMYSLLIDTYIRDPKKREFLFNAIETMPYVKKKADWALRWIADRKSTFGERVVAFAAVEGVFFSGSGAAIFWLKKRGLMPGLTFSNELISRDEGLHCDFACLMFQYLVNKPSEERVREIIVDAVKIEQEFLTEALPVGLIGMNCILMKQYIEFVADRLLVELGFSKVFQAENPFDFMENISLEGKTNFFEKRVSEYQRFAVMAETTDNVFTLDADF
B3: hRRM2B F198G (enzyme)
chain: MGDPERPEAAGLDQDERSSSDTNESEIKSNEEPLLRKSSRRFVIFPIQYPDIWKMYKQAQASFWTAEEVDLSKDLPHWNKLKADEKYFISHILAFFAASDGIVNENLVERFSQEVQVPEARCFYGFQILIENVHSEMYSLLIDTYIRDPKKREFLFNAIETMPYVKKKADWALRWIADRKSTFGERVVAFAAVEGVFGSGSFAAIFWLKKRGLMPGLTFSNELISRDEGLHCDFACLMFQYLVNKPSEERVREIIVDAVKIEQEFLTEALPVGLIGMNCILMKQYIEFVADRLLVELGFSKVFQAENPFDFMENISLEGKTNFFEKRVSEYQRFAVMAETTDNVFTLDADF
B4: hRRM2B F206G (enzyme)
chain: MGDPERPEAAGLDQDERSSSDTNESEIKSNEEPLLRKSSRRFVIFPIQYPDIWKMYKQAQASFWTAEEVDLSKDLPHWNKLKADEKYFISHILAFFAASDGIVNENLVERFSQEVQVPEARCFYGFQILIENVHSEMYSLLIDTYIRDPKKREFLFNAIETMPYVKKKADWALRWIADRKSTFGERVVAFAAVEGVFFSGSFAAIGWLKKRGLMPGLTFSNELISRDEGLHCDFACLMFQYLVNKPSEERVREIIVDAVKIEQEFLTEALPVGLIGMNCILMKQYIEFVADRLLVELGFSKVFQAENPFDFMENISLEGKTNFFEKRVSEYQRFAVMAETTDNVFTLDADF

For this assay, the target named is T1, human ribonucleotide reductase large subunit RRM1 (human).
B1 showed an RNR activity of the reconstituted complex (CDP to dCDP, HPLC), percent of wild-type hRRM2B; hRRM1 2 μM, hRRM2B 6 μM (% of wild type) of 33.

B2 showed an RNR activity of the reconstituted complex (CDP to dCDP, HPLC), percent of wild-type hRRM2B; hRRM1 2 μM, hRRM2B 6 μM (% of wild type) of 21.5.

In the case of B3, the RNR activity of the reconstituted complex (CDP to dCDP, HPLC), percent of wild-type hRRM2B; hRRM1 2 μM, hRRM2B 6 μM (% of wild type) came out at 19.1.

For the molecule B4, the RNR activity of the reconstituted complex (CDP to dCDP, HPLC), percent of wild-type hRRM2B; hRRM1 2 μM, hRRM2B 6 μM (% of wild type) came to 11.7.
